Data reported in the RNAGym collection of RNA variant scans (doi:10.7554/elife.80360).

B1: Hammerhead Ribozyme (parent)
chain: ACCGGAUGUGCUUUCCGGUCUGAUGAGUCCGUGAGGACGAAACAG

Variants of: B1
Assay: self-cleavage, relative activity (ratio to wild type); higher = more cleavage; co-transcriptional

Compared with ACCGGAUGUGCUUUGCGGUCUGAUGAGUCCGUGACGACGAAACAG, ACCGGAUGUCCUAUCCGGUCUGAUGAGUCCGUGAGGACGAAACAG is higher in self-cleavage: 0.456 for the first, 1.03 for the second.

First: ACCGGAUGUCCUUUCCGGUAUGAUGAGUCCGUGAGGACGAAACAG
Second: UCCGGAUGUGCUUUCCGGUCUGAUGAGUCCGUGAGGACGCAACAG
The self-cleavage of the first is lower: 0.336 for the first, 0.387 for the second.

Compared with ACCGGAUGUGCUUUCCGGUCUGAAGCGUCCGUGAGGACGAAACAG, ACCGGAUGUGCUUUCCGGUCUGAUGAGCCCCUGAGGACGAAACAG is higher in self-cleavage: 0.602 for the first, 0.769 for the second.

Compared with ACCGGAUGUGCUUUCCGGUCUGAAGAGUCCGAGAGGACGAAACAG, ACCGGAUGUGCUUUCCGGUCUGAUGAGUACGUGAGGACAAAACAG is lower in self-cleavage: 0.859 for the first, 0.356 for the second.

First: ACCGGAUGUGCUUUCCGGUCUGAUGCGUGCGUGAGGACGAAACAG
Second: ACCGGAUGUGCUUUCCGGCCUGAUGAGUCCGUGAGGACGAAACAC
The self-cleavage of the first is lower: 0.303 for the first, 0.519 for the second.

First: ACUGGAUGUGCUUUCCGGUCUGAUGUGUCCGUGAGGACGAAACAG
Second: ACCGCAUGUGCUUUCCGGUCUGAUGAGUCCGUGAGGACGAAACAA
The self-cleavage of the first is higher: 0.624 for the first, 0.384 for the second.

Going from ACGGGAUGUGCUUUCCUGUCUGAUGAGUCCGUGAGGACGAAACAG to ACCGGAUGUGCUUUCCGGUCUGAUGAGUCCGUGAGGAGCAAACAG, the self-cleavage falls from 0.583 to 0.326.

Compared with ACCGGAUGGGCUUUCCGGUCUGAUGAGCCCGUGAGGACGAAACAG, ACCCGAUGUGCUUUCCGGUCUGAUGAGUCCGUAAGGACGAAACAG is higher in self-cleavage: 0.673 for the first, 0.879 for the second.

Going from ACCGGAUGUGUUUUCCGGUCUGAUGAGUCCGUGAGGAAGAAACAG to ACCGGAUGUGCUUUCCGGUCUGAUCAGUGCGUGAGGACGAAACAG, the self-cleavage falls from 0.511 to 0.334.

First: ACCUGAUGUGCUUUCCGGUCUGAUGAGUCCGUGAGGAAGAAACAG
Second: ACCGGAGGUCCUUUCCGGUCUGAUGAGUCCGUGAGGACGAAACAG
The self-cleavage of the first is lower: 0.289 for the first, 1.74 for the second.

First: ACCGCAUGUGCUUUCCGGUCUGAUGAGUCCGUGAGGACGAAACCG
Second: ACGGGAGGUGCUUUCCGGUCUGAUGAGUCCGUGAGGACGAAACAG
The self-cleavage of the first is lower: 0.345 for the first, 0.625 for the second.

First: ACCGGAUGUGCUUUCCGGUCUGAUGAAUCCGUGAGGACGAAACAU
Second: ACCGGAUGUGCUUUCCGGUCUGCUGAGUCCGUGAGGACGUAACAG
The self-cleavage of the first is higher: 0.472 for the first, 0.243 for the second.

Going from ACCGGAUGUGCGUUCCGGUCUGAUGAGUCCGUCAGGACGAAACAG to ACCGCAUGUGCCUUCCGGUCUGAUGAGUCCGUGAGGACGAAACAG, the self-cleavage falls from 0.972 to 0.703.

Going from ACCGGUCGUGCUUUCCGGUCUGAUGAGUCCGUGAGGACGAAACAG to ACCGGAUGUGCUUCCCGGUCUGAUGAGUCAGUGAGGACGAAACAG, the self-cleavage rises from 0.356 to 0.7.

Compared with ACCGGAUGAGCCUUCCGGUCUGAUGAGUCCGUGAGGACGAAACAG, ACCGGAUGUGCUUUGCGGUCUGAUGUGUCCGUGAGGACGAAACAG is lower in self-cleavage: 0.947 for the first, 0.516 for the second.

First: ACCGGAUGUGCUUUCCGGUCGUAUGAGUCCGUGAGGACGAAACAG
Second: ACCGGAUGUGCAUUCCGGUCUGAUGAAUCCGUGAGGACGAAACAG
The self-cleavage of the first is lower: 0.426 for the first, 0.77 for the second.

First: ACCGGAUGUGCUUUCCGGUCUUAUGUGUCCGUGAGGACGAAACAG
Second: ACCGGAUGUGCUUUCCGUUCUGAUGAGUCCGUGAGGACGAAACAU
The self-cleavage of the first is lower: 0.315 for the first, 0.475 for the second.

Compared with ACCGAAUGUGCUUUCCGGUCUGAUGUGUCCGUGAGGACGAAACAG, ACCGGAUGUGCUUUCCGGUCUGAUGAGUCUGUGAGGUCGAAACAG is lower in self-cleavage: 0.66 for the first, 0.643 for the second.

First: ACCGGAUGUUCAUUCCGGUCUGAUGAGUCCGUGAGGACGAAACAG
Second: ACCGGAUGUGCUUCCCGGUCUGAUGAGUCCUUGAGGACGAAACAG
The self-cleavage of the first is lower: 0.87 for the first, 1.05 for the second.

Compared with ACCGGAUGUGCUUUCCGGUCGGAUGAGUCAGUGAGGACGAAACAG, ACUGGAUGUGCUUUCCGGUCUGAUGAGUCCGUGAGGACGAUACAG is lower in self-cleavage: 0.419 for the first, 0.378 for the second.

Compared with ACCGGAUGUCCUUUCCGGUCUGAUGAGUCCGUCAGGACGAAACAG, ACCGCAUGUGCUUUCCGGUCUGAUAAGUCCGUGAGGACGAAACAG is lower in self-cleavage: 0.937 for the first, 0.305 for the second.

Compared with ACCGGAUGUGCUUUCCGUUCUGAUGAGUCCGUGAGAACGAAACAG, ACCGGAUGUGAUUUCCGGUCUGAUGAGUCCGUGAGGUCGAAACAG is higher in self-cleavage: 0.621 for the first, 0.633 for the second.

First: ACCGGAUGUGCUUUCCGGUCAGAUGAGUCCGUGAUGACGAAACAG
Second: ACCGGAUCUGCUUUCCGGUCUGAUGAGUACGUGAGGACGAAACAG
The self-cleavage of the first is lower: 0.466 for the first, 0.548 for the second.

Going from ACCGGAUGUGCUUUCCCGUCUGAUGAGUCCGUGAGGACGAAACCG to ACCGGAUGUGCUUUCCGGUCUGAUCAGUCCGUGAGGACGAACCAG, the self-cleavage falls from 0.418 to 0.293.

Compared with ACCGGAUGUGCUUUCCGGUCUGAUUAGUCCGUGCGGACGAAACAG, ACCGCAUGUGCUUUCCGGUCUGAUGAGUCCGUGAGGACGCAACAG is higher in self-cleavage: 0.317 for the first, 0.325 for the second.

ACCGGAUGUGCUUUCCGGUCUGAUGAGUCCGUUAGGGCGAAACAG and ACCGGAUGUGCUUUCCGGUCUGAUGAGUCCGUUAGGCCGAAACAG are the same in self-cleavage: 1.04 for the first, 1.04 for the second.

First: UCCGGAUGUGGUUUCCGGUCUGAUGAGUCCGUGAGGACGAAACAG
Second: ACCGGAUGUGCUUUCCGGUCUGAUGAGUCCGCGAGGACGAAAAAG
The self-cleavage of the first is higher: 0.646 for the first, 0.315 for the second.

First: ACCGGAUGUGCUUUCCGUUCUGAUAAGUCCGUGAGGACGAAACAG
Second: ACCGGGUGUGCUUUCCCGUCUGAUGAGUCCGUGAGGACGAAACAG
The self-cleavage of the first is lower: 0.369 for the first, 0.494 for the second.

With ACCGGAAGUGCUUUCCGGUCUGAUGAGUCCGUGAGGACGAAACAG the self-cleavage was 1.28.
